These results are taken from paper PMC9817130, “Structural insights into broadly neutralizing antibodies elicited by hybrid immunity against SARS-CoV-2” (Emerging Microbes & Infections, 2023).

In the experiment the target is T1, SARS-CoV-2 WT RBD protein (Sino Biological) (SARS-CoV-2 WT, UniProt P0DTC2).
T1 construct: also called viral RBD; immobilized RBD
Put plainly: SPR. To be noted: both partners purified.

B1: LY-CoV1404 (Bebtelovimab) (antibody, V domains shown)
VH: QITLKESGPTLVKPTQTLTLTCTFSGFSLSISGVGVGWLRQPPGKALEWLALIYWDDDKRYSPSLKSRLTISKDTSKNQVVLKMTNIDPVDTATYYCAHHSISTIFDHWGQGTLVTVSS
VL: QSALTQPASVSGSPGQSITISCTATSSDVGDYNYVSWYQQHPGKAPKLMIFEVSDRPSGISNRFSGSKSGNTASLTISGLQAEDEADYYCSSYTTSSAVFGGGTKLTVL
notes: also called class III LY-CoV1404
On to B1, for which the binding result is recorded as “binds”.
